According to PMC7954794, “Protein context shapes the specificity of SH3 domain-mediated interactions in vivo” (Nature Communications, 2021):

Test system: growth of yeast strains under 51 stress conditions
Test: Growth assays in 51 stress conditions (Fig. 1E-F, S2D, S5B)
Format: cell-based, Saccharomyces cerevisiae
Set-up: key to Growth (Fig. S2D) / growth of ABP1 SH3-swapped strains in stress condition: log2 colony size, average of median per strain (growth score)
Conditions: ABP1 SH3-swapped strains
Procedure, shortened: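 Yeast WT, SH3-deleted, KO, SH3-swapped and SH3-shuffled strains pinned in 1536 format, 12 replicates each; pregrown on YPD 2 days at 30 °C, then replicated onto 51 media at 37 °C and imaged every 2 h. Growth score = mean of per-plate median log2 colony size at 74 h.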

B1: LSB3 (protein)
chain: MGINNPIPRSLKSETKKAAKILASFVKPNQVFGADQVIPPDVLKRAKGLAIITILKAGFLFSGRAGSGVIVARLKDGTWSAPSAIAMAGAGAGGMVGIELTDFVFILNTQDAVKSFSEFGTITLGGNVSVSAGPLGRSAEAAASASAGGVAAVFAYSKSKGLFAGVSVEGSAIIERREANRKFYGDNCTAKMILSGRIRPPPAVDPLFRVLESRAFNYRPSNGGRGSFDDDEDDYYDDDDYYNDIPSSFSSTDASSTRPNTRSTRRRAQSGSRYTFDDDDDDDDYGTGYSRNSRLAPTNSGGSGGKLDDPSGASSYYASHRRSGTAQSRARSSRNRWADDEYDDYDDDYESGYRRGNGRDRTKDREVDDLSNRFSKSRISSASTPQTSQGRFTAPTSPSTSSPKAVALYSFAGEESGDLPFRKGDVITILKKSDSQNDWWTGRVNGREGIFPANYVELV
modifications: left off: DHFR F[3], C-terminal, kept
Growth (Fig. S2D) (Bathophenanthroline.0.1uM): 10.8613 | Growth (Fig. S2D) (Bathophenanthroline.10uM): 10.7004 | Growth (Fig. S2D) (Bathophenanthroline.1uM): 10.8044 | Growth (Fig. S2D) (CaCl2.100mM): 10.8415 | Growth (Fig. S2D) (CaCl2.250mM): 10.752 | Growth (Fig. S2D) (CaCl2.500mM): 10.2861 | Growth (Fig. S2D) (Caffein.10mM): 10.1331 | Growth (Fig. S2D) (Caffein.2mM): 11.0359 | Growth (Fig. S2D) (CdCl2.100uM): 9.517 | Growth (Fig. S2D) (CdCl2.10uM): 10.8992 | Growth (Fig. S2D) (CdCl2.50uM): 9.9 | Growth (Fig. S2D) (CuSO4.1mM): 10.501 | Growth (Fig. S2D) (CuSO4.5mM): 7.988 | Growth (Fig. S2D) (Cycloheximide.0.05.uM): 11.1308 | Growth (Fig. S2D) (Cycloheximide.0.2.uM): 10.6758 | Growth (Fig. S2D) (Cycloheximide.0.5.uM): 10.143 | Growth (Fig. S2D) (DMSO.2.): 11.0244 | Growth (Fig. S2D) (DMSO.6.): 9.802 | Growth (Fig. S2D) (DMSO.8.): 9.136 | Growth (Fig. S2D) (Ethanol.2.): 10.7759 | Growth (Fig. S2D) (Ethanol.6.): 10.3185 | Growth (Fig. S2D) (Ethanol.8.): 10.0689 | Growth (Fig. S2D) (Galactose.2.): 10.7876 | Growth (Fig. S2D) (Glycerol.2.): 9.905 | Growth (Fig. S2D) (Hydroxyurea.25mM): 10.8417 | Growth (Fig. S2D) (Hygromycin.190uM): 11 | Growth (Fig. S2D) (Hygromycin.19uM): 10.9944 | Growth (Fig. S2D) (Hygromycin.95uM): 11.0899 | Growth (Fig. S2D) (MMS.0.004.): 10.9826 | Growth (Fig. S2D) (MMS.0.02.): 10.7326 | Growth (Fig. S2D) (MMS.0.04.): 10.0186 | Growth (Fig. S2D) (Menadione.100uM): 10.5511 | Growth (Fig. S2D) (Menadione.200uM): 10.5189 | Growth (Fig. S2D) (Menadione.50uM): 10.8398 | Growth (Fig. S2D) (NaCl.0.25M): 10.7826 | Growth (Fig. S2D) (NaCl.1M): 9.561 | Growth (Fig. S2D) (Nitroquinoline.10uM): 10.7432 | Growth (Fig. S2D) (Nitroquinoline.50uM): 10.6203 | Growth (Fig. S2D) (Nystatin.0.01uM): 11.0314 | Growth (Fig. S2D) (Nystatin.0.1uM): 11.0473 | Growth (Fig. S2D) (Raffinose.2.): 11.0154 | Growth (Fig. S2D) (Rapamycin.10nM): 9.815 | Growth (Fig. S2D) (Rapamycin.50nM): 9.462 | Growth (Fig. S2D) (SC.pH3): 10.4429 | Growth (Fig. S2D) (SC.pH6): 11.0914 | Growth (Fig. S2D) (SDS.0.01.): 10.9846 | Growth (Fig. S2D) (SDS.0.02.): 11.0384 | Growth (Fig. S2D) (SDS.0.05.): 10.8514 | Growth (Fig. S2D) (Sorbitol.10mM): 10.9664 | Growth (Fig. S2D) (Sorbitol.1mM): 11.0248 | Growth (Fig. S2D) (Sorbitol.5mM): 10.914
